Results on one molecule are retold here after article PMC5299547 (Analytical Chemistry, 2017).

For the assay, the target named is T1, tryptophan synthase, beta subunit (Salmonella typhimurium, UniProt P0A2K1 2-397).
T1 sequence: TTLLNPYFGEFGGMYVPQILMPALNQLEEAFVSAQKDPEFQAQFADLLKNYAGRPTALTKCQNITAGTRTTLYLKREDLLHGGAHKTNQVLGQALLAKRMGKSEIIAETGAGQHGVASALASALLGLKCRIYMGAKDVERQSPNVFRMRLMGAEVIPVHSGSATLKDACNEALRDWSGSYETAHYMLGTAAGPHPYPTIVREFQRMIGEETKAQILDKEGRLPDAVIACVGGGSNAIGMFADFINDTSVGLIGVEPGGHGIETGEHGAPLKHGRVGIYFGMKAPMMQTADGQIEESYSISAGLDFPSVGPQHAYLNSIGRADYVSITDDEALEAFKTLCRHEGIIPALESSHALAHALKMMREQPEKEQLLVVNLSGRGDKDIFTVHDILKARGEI
Briefly: native MS; 10 μM purified complex buffer-exchanged in 200 mM ammonium acetate, electrosprayed (Synapt G2Si); subcomplexes generated in solution with 10–40% methanol, DMSO or acetonitrile. As to conditions: both partners purified.

B1: tryptophan synthase, alpha subunit (natural protein, Salmonella typhimurium)
chain: MERYENLFAQLNDRREGAFVPFVTLGDPGIEQSLKIIDTLIDAGADALELGVPFSDPLADGPTIQNANLRAFAAGVTPAQCFEMLALIREKHPTIPIGLLMYANLVFNNGIDAFYARCEQVGVDSVLVADVPVEESAPFRQAALRHNIAPIFICPPNADDDLLRQVASYGRGYTYLLSRSGVTGAENRGALPLHHLIEKLKEYHAAPALQGFGISSPEQVSAAVRAGAAGAISGSAIVKIIEKNLASPKQMLAELRSFVSAMKAASRA
In the case of B1, the binding result is given as “binds”.
